According to patent US20210213165A1:

Target: autologous blood coagulum (ABC) prepared from rat full blood
Assay: rhBMP-6 mixed with rat full blood, coagulated for 60 min, serum removed; method of quantification not stated

recombinant human BMP6 (rhBMP6) (from UniProt P22004 375-513) (ligand)
percent bound: > 95%
